Source: patent US20250295737A1 (AstraZeneca / MedImmune, published 2025)
Numbering of substitutions follows the chain as printed. Like-named read-outs stand apart in the source and are kept apart here. One block for each binder: values may come before it.

Columns and labels:
Test in all cases: cell-based or functional assay
human RXFP1 [1] = biological target: T1, human RXFP1 (human, UniProt Q9HBX9 1-757)
T1 sequence (looked up): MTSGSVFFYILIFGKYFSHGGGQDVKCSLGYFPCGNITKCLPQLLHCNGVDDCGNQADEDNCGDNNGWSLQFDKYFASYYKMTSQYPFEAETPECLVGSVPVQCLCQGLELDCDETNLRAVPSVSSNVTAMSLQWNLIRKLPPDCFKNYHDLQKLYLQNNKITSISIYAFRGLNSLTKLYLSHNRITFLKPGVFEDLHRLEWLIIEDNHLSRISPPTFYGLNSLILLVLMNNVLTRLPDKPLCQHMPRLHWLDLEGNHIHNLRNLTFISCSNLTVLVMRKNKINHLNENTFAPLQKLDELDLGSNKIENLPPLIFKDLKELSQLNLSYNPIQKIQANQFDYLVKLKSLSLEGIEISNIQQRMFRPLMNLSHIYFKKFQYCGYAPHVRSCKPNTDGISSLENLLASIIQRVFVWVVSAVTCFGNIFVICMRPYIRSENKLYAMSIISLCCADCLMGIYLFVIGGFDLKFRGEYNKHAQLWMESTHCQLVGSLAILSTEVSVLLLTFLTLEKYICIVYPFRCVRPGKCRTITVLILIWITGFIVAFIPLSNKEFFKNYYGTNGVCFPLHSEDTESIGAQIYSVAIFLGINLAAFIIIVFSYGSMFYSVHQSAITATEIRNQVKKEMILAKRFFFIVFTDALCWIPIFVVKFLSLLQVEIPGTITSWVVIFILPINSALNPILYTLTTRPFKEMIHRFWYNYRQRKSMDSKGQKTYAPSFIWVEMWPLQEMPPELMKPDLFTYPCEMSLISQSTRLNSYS

mouse RXFP1 [2] = biological target: T2, mouse RXFP1 (mouse, UniProt Q6R6I7 1-758)
T2 sequence (looked up): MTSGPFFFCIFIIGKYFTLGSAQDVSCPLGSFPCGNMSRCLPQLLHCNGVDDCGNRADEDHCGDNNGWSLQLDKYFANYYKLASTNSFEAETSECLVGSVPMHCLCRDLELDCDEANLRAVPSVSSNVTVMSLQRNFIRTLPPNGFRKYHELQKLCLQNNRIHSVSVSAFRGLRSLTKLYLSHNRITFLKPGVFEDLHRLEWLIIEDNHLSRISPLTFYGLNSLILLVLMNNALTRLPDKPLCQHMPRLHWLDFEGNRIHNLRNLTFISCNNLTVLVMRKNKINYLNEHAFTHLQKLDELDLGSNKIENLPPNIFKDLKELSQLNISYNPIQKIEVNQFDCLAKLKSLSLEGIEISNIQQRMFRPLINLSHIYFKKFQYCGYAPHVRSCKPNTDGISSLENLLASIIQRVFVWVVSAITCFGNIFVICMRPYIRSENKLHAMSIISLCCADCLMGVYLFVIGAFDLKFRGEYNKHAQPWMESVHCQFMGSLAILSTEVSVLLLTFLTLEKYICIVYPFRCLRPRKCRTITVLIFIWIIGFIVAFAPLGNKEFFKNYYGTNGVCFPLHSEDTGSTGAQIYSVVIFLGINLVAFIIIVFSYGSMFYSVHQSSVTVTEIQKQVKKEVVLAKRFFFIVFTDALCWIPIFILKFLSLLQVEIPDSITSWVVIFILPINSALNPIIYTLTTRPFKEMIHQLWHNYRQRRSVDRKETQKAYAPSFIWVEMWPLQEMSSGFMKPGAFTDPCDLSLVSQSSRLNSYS

human RXFP2 [3] = biological target: T3, human RXFP2 (human, UniProt Q8WXD0 1-754)
human RXFP1 [4] = biological target: T1, human RXFP1; remark: listed apart in the source
mouse RXFP1 [5] = biological target: T2, mouse RXFP1; remark: listed apart in the source
human RXFP2 [6] = biological target: T3, human RXFP2; remark: listed apart in the source
human RXFP1 [7] = biological target: T1, human RXFP1; remark: listed apart in the source
mouse RXFP1 [8] = biological target: T2, mouse RXFP1; remark: listed apart in the source

T3 sequence (Q8WXD0 whole entry): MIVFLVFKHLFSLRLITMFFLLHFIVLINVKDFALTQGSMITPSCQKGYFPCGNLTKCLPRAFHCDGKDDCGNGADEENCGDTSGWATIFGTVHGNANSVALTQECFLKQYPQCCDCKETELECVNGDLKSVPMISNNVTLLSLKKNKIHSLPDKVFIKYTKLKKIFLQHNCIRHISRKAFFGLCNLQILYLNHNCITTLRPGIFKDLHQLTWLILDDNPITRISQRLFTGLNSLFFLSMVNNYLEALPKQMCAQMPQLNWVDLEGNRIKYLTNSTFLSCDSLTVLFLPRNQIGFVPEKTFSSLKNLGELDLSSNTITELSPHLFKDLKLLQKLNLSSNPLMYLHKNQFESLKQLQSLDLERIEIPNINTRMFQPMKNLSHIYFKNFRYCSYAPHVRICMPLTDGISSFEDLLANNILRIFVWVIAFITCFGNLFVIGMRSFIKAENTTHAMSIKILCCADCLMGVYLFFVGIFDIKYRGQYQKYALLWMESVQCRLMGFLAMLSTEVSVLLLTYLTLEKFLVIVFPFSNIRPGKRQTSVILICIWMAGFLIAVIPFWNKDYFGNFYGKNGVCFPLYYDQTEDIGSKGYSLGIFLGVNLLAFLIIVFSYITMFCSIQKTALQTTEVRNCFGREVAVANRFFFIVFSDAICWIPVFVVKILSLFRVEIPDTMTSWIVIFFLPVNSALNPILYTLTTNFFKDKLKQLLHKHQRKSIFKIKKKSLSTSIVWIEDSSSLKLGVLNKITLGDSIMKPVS

B2: RELAX0039 (Fc fusion)
chain 1: DKTHTACPPCPAPEFEGGPSVFLFPPKPKDTLMISRTPEVTCVVVDVSHEDPEVKFNWYVDGVEVHNAKTKPREEQYNSTYRVVSVLTVLHQDWLNGKEYKCKVSNKALPASIEKTISKAKGQPREPQVYTLPPCREEMTKNQVSLWCLVKGFYPSDIAVEWESNGQPENNYKTTPPVLDSDGSFFLYSKLTVDKSRWQQGNVFSCSVMHEALHNHYTQKSLSLSPGGGGGSGGGGSGGGGSGGGGGSQLYSALANMCCHVGCTKRSLARFC
chain 2: DKTHTCPPCPAPEFEGGPSVFLFPPKPKDTLMISRTPEVTCVVVDVSHEDPEVKFNWYVDGVEVHNAKTKPREEQYNSTYRVVSVLTVLHQDWLNGKEYKCKVSNKALPASIEKTISKAKGQPREPQVCTLPPSREEMTKNQVSLSCAVKGFYPSDIAVEWESNGQPENNYKTTPPVLDSDGSFFLVSKLTVDKSRWQQGNVFSCSVMHEALHNHYTQKSLSLSPGGGGGSGGGGSGGGGSGGGGGSSWMEEVIKLCGRELVRAQIAICGMSTWS
EC50 hRXFP1 (M), cAMP HTRF assay (human RXFP1 [4]): 6.54e-11 M
EC50 mRXFP1 (M), cAMP HTRF assay (mouse RXFP1 [5]): 4.25e-11 M
EC50 hRXFP2 (M), cAMP HTRF assay (human RXFP2 [6]): 1.08e-07 M

B3: RELAX0021 (Fc fusion)
chain 1: B2 chain 1 with D1G, K2G, T3A, H4G, T5G, C135S, M257K
chain 2: GGAGGACPPCPAPEFEGGPSVFLFPPKPKDTLMISRTPEVTCVVVDVSHEDPEVKFNWYVDGVEVHNAKTKPREEQYNSTYRVVSVLTVLHQDWLNGKEYKCKVSNKALPASIEKTISKAKGQPREPQVYTLPPSREEMTKNQVSLSCAVKGFYPSDIAVEWESNGQPENNYKTTPPVLDSDGSFFLVSKLTVDKSRWQQGNVFSCSVMHEALHNHYTQKSLSLSPGGGGGSGGGGSGGGGSGGGGGSSWMEEVIKLCGRELVRAQIAICGMSTWS
EC50 hRXFP1 (M), cAMP HTRF assay (human RXFP1 [7]): 8.27e-11 M
EC50 mRXFP1 (M), cAMP HTRF assay (mouse RXFP1 [8]): 4.14e-11 M

B4: RELAX0022 (Fc fusion)
chain 1: B2 chain 1 with D1G, K2G, T3A, H4G, T5G, C135S, W147S, L149A, Y188V, M257K
chain 2: B3 chain 2 with S147W, A149L, V188Y
EC50 hRXFP1 (M), cAMP HTRF assay (human RXFP1 [7]): 4.74e-11 M
EC50 mRXFP1 (M), cAMP HTRF assay (mouse RXFP1 [8]): 3.28e-11 M

B5: RELAX0041 (Fc fusion)
chain 1: B2 chain 1 with M257H
chain 2: B2 chain 2
EC50 hRXFP1 (M), cAMP HTRF assay (human RXFP1 [4]): 6.22e-11 M
EC50 mRXFP1 (M), cAMP HTRF assay (mouse RXFP1 [5]): 3.17e-11 M
EC50 hRXFP2 (M), cAMP HTRF assay (human RXFP2 [6]): 1.18e-07 M

B6: RELAX0052 (Fc fusion)
chain 1: B2 chain 1 with M257K, R266E
chain 2: B2 chain 2
EC50 hRXFP1 (M), cAMP HTRF assay (human RXFP1 [4]): 9.67e-11 M
EC50 mRXFP1 (M), cAMP HTRF assay (mouse RXFP1 [5]): 5.69e-11 M
EC50 hRXFP2 (M), cAMP HTRF assay (human RXFP2 [6]): 1.05e-07 M

B11: RELAX0043 (Fc fusion)
chain 1: B2 chain 1 with M257E
chain 2: B2 chain 2
EC50 hRXFP1 (M), cAMP HTRF assay (human RXFP1 [4]): 7.98e-11 M
EC50 mRXFP1 (M), cAMP HTRF assay (mouse RXFP1 [5]): 5.58e-11 M
EC50 hRXFP2 (M), cAMP HTRF assay (human RXFP2 [6]): > 1.58e-07 M

B12: RELAX0071 (Fc fusion)
chain 1: DKTHTCPPCPAPEFEGGPSVFLFPPKPKDTLMISRTPEVTCVVVDVSHEDPEVKFNWYVDGVEVHNAKTKPREEQYNSTYRVVSVLTVLHQDWLNGKEYKCKVSNKALPASIEKTISKAKGQPREPQVYTLPPCREEMTKNQVSLWCLVKGFYPSDIAVEWESNGQPENNYKTTPPVLDSDGSFFLYSKLTVDKSRWQQGNVFSCSVMHEALHNHYTQKSLSLSPGGGGGSGGGGSGGGGSGGGGGSQLYSALANKCCHVGCTKRSLAQFC
chain 2: B2 chain 2
EC50 hRXFP1 (M), cAMP HTRF assay (human RXFP1 [4]): 6.87e-11 M
EC50 mRXFP1 (M), cAMP HTRF assay (mouse RXFP1 [5]): 3.93e-11 M
EC50 hRXFP2 (M), cAMP HTRF assay (human RXFP2 [6]): 1.15e-07 M

B14: RELAX0063 (Fc fusion)
chain 1: B12 chain 1 with Q269R, F270A
chain 2: B2 chain 2
EC50 hRXFP1 (M), cAMP HTRF assay (human RXFP1 [4]): 1.96e-10 M
EC50 mRXFP1 (M), cAMP HTRF assay (mouse RXFP1 [5]): 4.46e-11 M
EC50 hRXFP2 (M), cAMP HTRF assay (human RXFP2 [6]): > 1.38e-07 M

B16: RELAX0070 (Fc fusion)
chain 1: B12 chain 1 with Q269I
chain 2: B2 chain 2
EC50 hRXFP1 (M), cAMP HTRF assay (human RXFP1 [4]): 6.67e-11 M
EC50 mRXFP1 (M), cAMP HTRF assay (mouse RXFP1 [5]): 5.02e-11 M
EC50 hRXFP2 (M), cAMP HTRF assay (human RXFP2 [6]): 1.07e-07 M

B17: RELAX0073 (Fc fusion)
chain 1: B12 chain 1 with Q269Y
chain 2: B2 chain 2
EC50 hRXFP1 (M), cAMP HTRF assay (human RXFP1 [4]): 5.7e-11 M
EC50 mRXFP1 (M), cAMP HTRF assay (mouse RXFP1 [5]): 4.15e-11 M
EC50 hRXFP2 (M), cAMP HTRF assay (human RXFP2 [6]): 8.63e-08 M

Results, then the binder that gave them:

EC50 hRXFP1 (M), cAMP HTRF assay (human RXFP1 [1]): 1.93e-09 M
EC50 mRXFP1 (M), cAMP HTRF assay (mouse RXFP1 [2]): 1.24e-09 M
EC50 hRXFP2 (M), cAMP HTRF assay (human RXFP2 [3]): > 6.06e-08 M
B1: RELAX0111 (Fc fusion)
chain 1: DKTHTCPPCPAPEFEGGPSVFLFPPKPKDTLMISRTPEVTCVVVDVSHEDPEVKFNWYVDGVEVHNAKTKPREEQYNSTYRVVSVLTVLHQDWLNGKEYKCKVSNKALPASIEKTISKAKGQPREPQVYTLPPCREEMTKNQVSLWCLVKGFYPSDIAVEWESNGQPENNYKTTPPVLDSDGSFFLYSKLTVDKSRWQQGNVFSCSVMHEALHNHYTQKSLSLSPGGGGGGSQLYSALANKCCHVGCTKRSLARFC
chain 2: DKTHTCPPCPAPEFEGGPSVFLFPPKPKDTLMISRTPEVTCVVVDVSHEDPEVKFNWYVDGVEVHNAKTKPREEQYNSTYRVVSVLTVLHQDWLNGKEYKCKVSNKALPASIEKTISKAKGQPREPQVYTLPPCREEMTKNQVSLWCLVKGFYPSDIAVEWESNGQPENNYKTTPPVLDSDGSFFLYSKLTVDKSRWQQGNVFSCSVMHEALHNHYTQKSLSLSPGAAPAPAPAPAPAPAGSSWMEEVIKLCGRELVRAQIAICGMSTWS

EC50 hRXFP1 (M), cAMP HTRF assay (human RXFP1 [4]): 8.53e-11 M
EC50 mRXFP1 (M), cAMP HTRF assay (mouse RXFP1 [5]): 4.03e-11 M
EC50 hRXFP2 (M), cAMP HTRF assay (human RXFP2 [6]): > 2.3e-07 M
B7: RELAX0072 (Fc fusion)
chain 1: B12 chain 1 with Q269A
chain 2: B2 chain 2

EC50 hRXFP1 (M), cAMP HTRF assay (human RXFP1 [4]): 9.47e-11 M
EC50 mRXFP1 (M), cAMP HTRF assay (mouse RXFP1 [5]): 6.14e-11 M
EC50 hRXFP2 (M), cAMP HTRF assay (human RXFP2 [6]): > 1.43e-07 M
B8: RELAX0075 (Fc fusion)
chain 1: B12 chain 1 with Q269R, F270I
chain 2: B2 chain 2

EC50 hRXFP1 (M), cAMP HTRF assay (human RXFP1 [4]): 5.45e-11 M
EC50 mRXFP1 (M), cAMP HTRF assay (mouse RXFP1 [5]): 4.53e-11 M
EC50 hRXFP2 (M), cAMP HTRF assay (human RXFP2 [6]): 9.21e-08 M
B9: RELAX0074 (Fc fusion)
chain 1: B12 chain 1 with Q269S
chain 2: B2 chain 2

EC50 hRXFP1 (M), cAMP HTRF assay (human RXFP1 [4]): 7.15e-11 M
EC50 mRXFP1 (M), cAMP HTRF assay (mouse RXFP1 [5]): 4.36e-11 M
EC50 hRXFP2 (M), cAMP HTRF assay (human RXFP2 [6]): > 1.79e-07 M
B10: RELAX0053 (Fc fusion)
chain 1: B2 chain 1 with M257K, R266H
chain 2: B2 chain 2

EC50 hRXFP1 (M), cAMP HTRF assay (human RXFP1 [4]): 5.92e-11 M
EC50 mRXFP1 (M), cAMP HTRF assay (mouse RXFP1 [5]): 2.92e-11 M
EC50 hRXFP2 (M), cAMP HTRF assay (human RXFP2 [6]): > 1.27e-07 M
B13: RELAX0040 (Fc fusion)
chain 1: B2 chain 1 with M257L
chain 2: B2 chain 2

EC50 hRXFP1 (M), cAMP HTRF assay (human RXFP1 [4]): 5.76e-11 M
EC50 mRXFP1 (M), cAMP HTRF assay (mouse RXFP1 [5]): 3.69e-11 M
EC50 hRXFP2 (M), cAMP HTRF assay (human RXFP2 [6]): > 1.62e-07 M
B15: RELAX0069 (Fc fusion)
chain 1: B12 chain 1 with Q269M
chain 2: B2 chain 2
